The text below walks through data of US20090186043A1 (BEN GURION UNIVERSITY OF THE NEGEV RESEARCH AND DEVELOPMENT …, published 2009).

This assay deals with T1, Recombinant Fructose Bisphosphate Aldolase (rFBA), FBA-HAT fusion protein, 33.5 kDa (Streptococcus pneumoniae TIGR4, UniProt P0A4S1 1-293).
T1 construct: Expressed in E. coli BL21(DE3)pLysS and purified on Ni-NTA in 8 M urea; also called rFBA-HAT fusion protein; recombinant FBA; not shown: HAT (histidine) tag from the pHAT expression vector
T1 sequence (looked up): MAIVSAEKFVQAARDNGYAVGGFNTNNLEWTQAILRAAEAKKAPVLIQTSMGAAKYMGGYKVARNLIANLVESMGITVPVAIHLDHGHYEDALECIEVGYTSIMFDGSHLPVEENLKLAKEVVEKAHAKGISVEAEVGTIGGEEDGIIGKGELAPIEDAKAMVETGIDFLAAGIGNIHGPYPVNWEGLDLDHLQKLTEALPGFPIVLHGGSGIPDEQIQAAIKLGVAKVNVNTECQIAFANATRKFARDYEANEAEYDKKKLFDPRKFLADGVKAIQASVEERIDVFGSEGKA
Briefly: Western blot like overlay: rFBA on nitrocellulose probed with FCRP, rabbit anti-FCRP-KLH serum and anti-rabbit IgG. For orientation: A western blot detects proteins with antibodies after separation by electrophoresis.

B1: Flamingo Cadherin receptor derived synthetic peptide (FCRP), 15 amino acids (peptide)
peptide: H-ADSDSDSDLSLEEER-OH
notes: Derived from human Flamingo homolog 1 (Q9NYQ7); also called FC peptide; FC derived synthetic peptide
In the case of B1, the binding result is “binds”.
